Laboratory results: the supplement of paper PMC10065799, “High-throughput profiling of sequence recognition by tyrosine kinases and SH2 domains using bacterial peptide display” (eLife, 2023)

Columns and labels:
SHP2-C SH2 = assay: SH2 binding enrichment of the phosphorylated peptide, bacterial display (enrichment ratio); higher = better substrate or ligand; peptides without Tyr show the background
c-Src SH2 = assay: as above
Grb2 SH2 = Grb2 SH2 (UniProt P62993); assay: as above
Fyn = Fyn (UniProt P06241); assay: phosphorylation enrichment, bacterial display (enrichment ratio); higher = better substrate or ligand; peptides without Tyr show the background
Fes = Fes (UniProt P07332); assay: as above
Fes, sequence (P07332 whole entry, looked up): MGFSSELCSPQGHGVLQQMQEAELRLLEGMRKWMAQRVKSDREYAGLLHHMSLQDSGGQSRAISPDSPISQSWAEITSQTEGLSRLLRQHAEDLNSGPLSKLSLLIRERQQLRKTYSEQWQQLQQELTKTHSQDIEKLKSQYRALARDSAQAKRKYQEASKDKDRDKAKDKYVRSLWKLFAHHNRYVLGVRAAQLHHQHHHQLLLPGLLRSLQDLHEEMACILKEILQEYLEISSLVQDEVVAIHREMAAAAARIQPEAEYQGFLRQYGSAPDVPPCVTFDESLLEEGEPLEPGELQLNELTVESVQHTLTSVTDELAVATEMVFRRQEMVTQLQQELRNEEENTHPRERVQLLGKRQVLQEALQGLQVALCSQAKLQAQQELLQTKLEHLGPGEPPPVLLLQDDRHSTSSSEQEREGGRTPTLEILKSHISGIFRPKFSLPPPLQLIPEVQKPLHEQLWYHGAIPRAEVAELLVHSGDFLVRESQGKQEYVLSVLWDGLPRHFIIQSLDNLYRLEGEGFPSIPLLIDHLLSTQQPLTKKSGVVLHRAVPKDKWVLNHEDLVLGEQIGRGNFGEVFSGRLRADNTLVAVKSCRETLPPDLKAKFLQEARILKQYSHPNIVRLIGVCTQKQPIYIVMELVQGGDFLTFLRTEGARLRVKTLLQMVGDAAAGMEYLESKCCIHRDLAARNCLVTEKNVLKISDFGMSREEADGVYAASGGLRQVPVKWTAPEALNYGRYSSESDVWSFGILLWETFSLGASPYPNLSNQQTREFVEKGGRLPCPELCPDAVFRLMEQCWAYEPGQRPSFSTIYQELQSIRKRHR

AncSZ = assay: as above
FGFR1 = FGFR1 (UniProt P11362); assay: as above
FGFR1, sequence (P11362 whole entry, looked up): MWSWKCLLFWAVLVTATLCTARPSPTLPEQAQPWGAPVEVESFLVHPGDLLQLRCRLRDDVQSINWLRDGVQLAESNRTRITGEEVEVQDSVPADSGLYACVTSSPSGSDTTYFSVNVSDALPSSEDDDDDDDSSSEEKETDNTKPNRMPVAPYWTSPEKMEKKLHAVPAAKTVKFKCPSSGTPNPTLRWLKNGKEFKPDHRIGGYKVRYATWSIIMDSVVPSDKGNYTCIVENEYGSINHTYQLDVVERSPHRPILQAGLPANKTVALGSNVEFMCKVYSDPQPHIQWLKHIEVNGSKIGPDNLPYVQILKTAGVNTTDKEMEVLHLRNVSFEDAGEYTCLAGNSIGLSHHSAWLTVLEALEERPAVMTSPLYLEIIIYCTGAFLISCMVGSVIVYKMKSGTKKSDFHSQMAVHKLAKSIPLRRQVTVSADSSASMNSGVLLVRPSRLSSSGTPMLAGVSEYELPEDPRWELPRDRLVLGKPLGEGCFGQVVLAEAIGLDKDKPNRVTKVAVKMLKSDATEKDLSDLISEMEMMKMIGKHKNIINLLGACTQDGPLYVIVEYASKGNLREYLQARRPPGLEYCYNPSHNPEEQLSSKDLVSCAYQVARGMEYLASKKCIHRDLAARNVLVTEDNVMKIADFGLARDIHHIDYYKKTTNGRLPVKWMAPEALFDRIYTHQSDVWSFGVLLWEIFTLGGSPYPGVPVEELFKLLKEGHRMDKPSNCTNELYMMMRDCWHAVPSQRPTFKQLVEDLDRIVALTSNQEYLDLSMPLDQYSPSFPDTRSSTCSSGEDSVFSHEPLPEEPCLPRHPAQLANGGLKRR

EPHB2 = EPHB2 (UniProt P29323); assay: as above
MERTK = MERTK (UniProt Q12866); assay: as above
MERTK, sequence (Q12866 whole entry, looked up): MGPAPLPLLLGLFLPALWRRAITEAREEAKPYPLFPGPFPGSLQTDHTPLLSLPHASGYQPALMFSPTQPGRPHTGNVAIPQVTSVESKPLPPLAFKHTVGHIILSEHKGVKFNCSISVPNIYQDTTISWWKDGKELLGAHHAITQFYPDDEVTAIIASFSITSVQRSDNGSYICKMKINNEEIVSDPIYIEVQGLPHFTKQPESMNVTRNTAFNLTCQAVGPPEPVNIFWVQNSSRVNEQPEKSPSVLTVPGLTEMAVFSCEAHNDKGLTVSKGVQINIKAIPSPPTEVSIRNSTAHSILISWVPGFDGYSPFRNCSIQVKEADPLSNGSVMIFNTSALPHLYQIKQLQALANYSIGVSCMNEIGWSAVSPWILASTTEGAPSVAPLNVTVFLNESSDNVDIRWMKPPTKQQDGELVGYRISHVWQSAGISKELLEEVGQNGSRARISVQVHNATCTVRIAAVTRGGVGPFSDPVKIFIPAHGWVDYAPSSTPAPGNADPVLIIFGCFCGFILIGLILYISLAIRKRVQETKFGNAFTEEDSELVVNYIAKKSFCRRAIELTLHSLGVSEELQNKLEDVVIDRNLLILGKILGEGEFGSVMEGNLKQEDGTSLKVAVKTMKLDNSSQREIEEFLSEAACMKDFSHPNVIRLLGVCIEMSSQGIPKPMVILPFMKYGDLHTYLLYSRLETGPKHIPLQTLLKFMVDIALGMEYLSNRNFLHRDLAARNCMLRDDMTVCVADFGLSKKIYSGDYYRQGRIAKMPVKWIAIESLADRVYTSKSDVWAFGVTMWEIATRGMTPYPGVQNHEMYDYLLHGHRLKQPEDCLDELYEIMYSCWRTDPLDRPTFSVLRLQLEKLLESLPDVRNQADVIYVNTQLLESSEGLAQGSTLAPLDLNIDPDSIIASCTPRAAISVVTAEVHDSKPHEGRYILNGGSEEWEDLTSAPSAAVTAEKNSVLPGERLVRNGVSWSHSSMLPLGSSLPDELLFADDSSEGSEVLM

FGFR3 = FGFR3 (UniProt P22607); assay: as above
FGFR3, sequence (P22607 whole entry, looked up): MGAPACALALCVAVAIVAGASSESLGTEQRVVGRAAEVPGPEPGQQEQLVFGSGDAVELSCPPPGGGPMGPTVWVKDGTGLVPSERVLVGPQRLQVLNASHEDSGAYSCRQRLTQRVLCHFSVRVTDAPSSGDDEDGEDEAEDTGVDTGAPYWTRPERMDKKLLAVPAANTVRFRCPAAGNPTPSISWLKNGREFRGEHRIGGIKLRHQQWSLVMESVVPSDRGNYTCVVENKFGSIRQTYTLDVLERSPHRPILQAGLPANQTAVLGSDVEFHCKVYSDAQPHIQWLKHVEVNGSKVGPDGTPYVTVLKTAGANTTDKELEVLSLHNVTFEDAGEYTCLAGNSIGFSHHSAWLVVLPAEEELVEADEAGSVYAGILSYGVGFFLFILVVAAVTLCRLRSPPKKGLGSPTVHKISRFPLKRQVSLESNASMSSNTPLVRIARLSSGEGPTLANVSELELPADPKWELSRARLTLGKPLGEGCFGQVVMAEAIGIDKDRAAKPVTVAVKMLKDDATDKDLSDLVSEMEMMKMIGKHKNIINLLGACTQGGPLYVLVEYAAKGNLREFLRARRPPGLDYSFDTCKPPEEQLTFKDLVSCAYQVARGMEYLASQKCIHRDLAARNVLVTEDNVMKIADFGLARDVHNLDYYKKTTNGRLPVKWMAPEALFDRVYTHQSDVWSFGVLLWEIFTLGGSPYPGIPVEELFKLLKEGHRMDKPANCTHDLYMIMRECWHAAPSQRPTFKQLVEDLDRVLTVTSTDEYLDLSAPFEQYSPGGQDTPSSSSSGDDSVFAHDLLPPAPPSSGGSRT

Fer (mouse) = assay: as above
Jak2 = Jak2 (UniProt O60674); assay: as above
c-Abl (mouse) = assay: as above
EPHB1 = EPHB1 (UniProt P54762); assay: as above
EPHB1, sequence (P54762 whole entry, looked up): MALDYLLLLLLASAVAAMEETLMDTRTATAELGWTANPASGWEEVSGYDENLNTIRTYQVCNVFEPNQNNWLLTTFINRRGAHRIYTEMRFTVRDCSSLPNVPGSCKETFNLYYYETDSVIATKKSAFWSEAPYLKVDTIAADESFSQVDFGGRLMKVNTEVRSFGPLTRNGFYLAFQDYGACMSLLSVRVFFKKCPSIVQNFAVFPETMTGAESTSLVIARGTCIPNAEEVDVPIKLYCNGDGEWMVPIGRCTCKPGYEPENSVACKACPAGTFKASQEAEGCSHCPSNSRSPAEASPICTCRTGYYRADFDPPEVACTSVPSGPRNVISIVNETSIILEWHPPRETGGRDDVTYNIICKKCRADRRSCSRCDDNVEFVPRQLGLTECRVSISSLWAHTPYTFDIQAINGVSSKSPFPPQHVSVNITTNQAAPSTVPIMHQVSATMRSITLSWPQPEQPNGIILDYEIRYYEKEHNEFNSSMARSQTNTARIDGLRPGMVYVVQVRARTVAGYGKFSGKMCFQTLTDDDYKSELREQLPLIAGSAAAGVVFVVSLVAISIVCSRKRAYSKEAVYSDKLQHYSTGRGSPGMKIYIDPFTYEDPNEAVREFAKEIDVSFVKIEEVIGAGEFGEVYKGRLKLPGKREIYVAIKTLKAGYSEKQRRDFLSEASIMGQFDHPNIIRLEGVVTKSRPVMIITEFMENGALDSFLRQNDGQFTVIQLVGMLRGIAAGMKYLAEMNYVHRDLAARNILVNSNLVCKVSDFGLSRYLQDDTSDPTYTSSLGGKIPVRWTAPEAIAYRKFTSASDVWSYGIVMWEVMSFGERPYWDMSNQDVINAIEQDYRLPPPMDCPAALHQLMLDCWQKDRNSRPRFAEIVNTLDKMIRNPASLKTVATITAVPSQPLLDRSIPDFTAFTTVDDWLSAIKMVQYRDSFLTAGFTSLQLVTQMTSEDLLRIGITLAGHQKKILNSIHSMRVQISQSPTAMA

Hck = Hck (UniProt P08631); assay: as above
Hck, sequence (P08631 whole entry, looked up): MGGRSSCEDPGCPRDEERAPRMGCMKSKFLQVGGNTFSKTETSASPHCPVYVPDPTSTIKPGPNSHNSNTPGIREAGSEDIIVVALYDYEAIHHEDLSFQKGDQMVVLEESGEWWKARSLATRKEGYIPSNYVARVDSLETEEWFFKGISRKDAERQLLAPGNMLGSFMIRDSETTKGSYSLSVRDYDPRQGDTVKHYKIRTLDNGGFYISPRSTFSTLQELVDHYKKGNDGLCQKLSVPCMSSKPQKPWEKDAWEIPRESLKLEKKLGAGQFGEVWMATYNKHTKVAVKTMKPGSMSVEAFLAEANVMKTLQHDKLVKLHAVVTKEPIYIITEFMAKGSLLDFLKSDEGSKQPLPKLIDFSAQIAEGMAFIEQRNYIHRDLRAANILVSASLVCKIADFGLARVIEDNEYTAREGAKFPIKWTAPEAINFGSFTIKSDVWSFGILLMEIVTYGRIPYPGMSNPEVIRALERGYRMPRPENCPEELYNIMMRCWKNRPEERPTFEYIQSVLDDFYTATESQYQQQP

c-Src = assay: as above
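Throughout, for SH2 binding enrichment of the phosphorylated peptide, bacterial display: peptide library displayed on the E. coli surface as eCPX fusions, selected cells deep-sequenced, score is each peptide's frequency after selection divided by its frequency in the input.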
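Throughout, for phosphorylation enrichment, bacterial display: 11-residue human phosphosite peptides and single-mutation variants displayed on the E. coli surface, counted by deep sequencing, each peptide's frequency after selection divided by its frequency in the unselected input library; frequency after pTyr selection over input frequency; kinase dosed for 20-30% of maximal phosphorylation in three min.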

Sequence | SH2 binding enrichment (SHP2-C SH2) | SH2 binding enrichment (c-Src SH2) | SH2 binding enrichment (Grb2 SH2) | phosphorylation enrichment (Fyn) | phosphorylation enrichment (Fes) | phosphorylation enrichment (AncSZ) | phosphorylation enrichment (FGFR1) | phosphorylation enrichment (EPHB2) | phosphorylation enrichment (MERTK) | phosphorylation enrichment (FGFR3) | phosphorylation enrichment (Fer (mouse)) | phosphorylation enrichment (Jak2) | phosphorylation enrichment (c-Abl (mouse)) | phosphorylation enrichment (EPHB1) | phosphorylation enrichment (Hck) | phosphorylation enrichment (c-Src)
INMKEYCKKDF [NTN1_Y490_K489E_YF] | 0.65 | 0.574 | 1.01 | 0.669 | 1.12 | 0.877 | 0.512 | 0.678 | 0.468 | 0.743 | 0.427 | 0.937 | 0.791 | 0.66 | 0.498 | 0.476
LRNRVYEVPVE [SLC26A3_Y756] | 0.936 | 6.38 | 1.25 | 1.17 | 1.25 | 1.65 | 0.584 | 1.54 | 3.3 | 0.757 | 4.25 | 2.04 | 1.52 | 1.12 | 1.37 | 1.18
KSSDVYVSYDC [SORL1_Y136_Y141C] | 0.583 | 0.766 | 0.959 | 4.79 | 1.13 | 1.22 | 1.52 | 0.993 | 0.611 | 1.35 | 0.663 | 0.934 | 0.772 | 0.866 | 1.87 | 3.82
QGLRLYRPHLP [BTK_Y617_A622P] | 1.34 | 0.781 | 0.816 | 0.401 | 0.857 | 0.772 | 0.48 | 0.568 | 0.512 | 0.408 | 0.606 | 0.967 | 0.712 | 0.444 | 0.522 | 0.419
CTNIHYNFMCN [TP53_Y234_T231N_YF] | 1.62 | 2.21 | 1.62 | 0.456 | 0.974 | 0.8 | 0.554 | 0.597 | 0.423 | 0.714 | 0.481 | 0.693 | 0.655 | 0.436 | 0.426 | 0.562
AKGMKYVASKK [MET_Y1194_L1195V] | 0.763 | 0.78 | 0.969 | 0.339 | 0.548 | 0.451 | 0.415 | 0.276 | 0.349 | 0.356 | 0.322 | 0.5 | 0.451 | 0.301 | 0.425 | 0.381
ILGTYYETGSI [PAX2_Y73_R71T] | 0.559 | 1.4 | 0.998 | 4.14 | 1.04 | 0.971 | 9.71 | 2.19 | 3.6 | 8.15 | 0.645 | 1.28 | 1.16 | 2.54 | 2.99 | 4.01
NTDETYSIDNE [TUBB2B_Y200_C201S] | 0.547 | 0.421 | 0.761 | 0.696 | 1.35 | 1.27 | 0.551 | 0.632 | 0.5 | 0.715 | 0.63 | 1.23 | 0.886 | 0.622 | 0.694 | 0.726
YVFSFYHAFSG [ACTN4_Y265_S262F] | 1.23 | 0.889 | 1.19 | 0.692 | 1.43 | 1.37 | 0.921 | 0.825 | 3.14 | 1.13 | 0.69 | 1.44 | 1.1 | 1.15 | 0.835 | 0.964
EIIPFYGMSSY [FNDC3B_Y175_T179S] | 0.828 | 6.51 | 0.855 | 0.777 | 0.914 | 0.877 | 0.489 | 0.77 | 0.728 | 0.672 | 0.933 | 0.748 | 0.587 | 0.6 | 0.967 | 0.616
LEDDMYRKTCT [XPA_Y257] | 0.738 | 0.524 | 1.04 | 1.78 | 2.56 | 2.07 | 1.24 | 1.03 | 0.848 | 1.67 | 1.37 | 1.56 | 1.17 | 1.15 | 0.984 | 0.624
GEDEPYSEPYA [APBA1_Y183] | 0.742 | 0.582 | 0.903 | 0.55 | 1.19 | 1.35 | 0.516 | 0.673 | 0.531 | 0.756 | 0.618 | 1.15 | 0.845 | 0.542 | 0.477 | 0.551
LNERHYGGLTD [PGAM2_Y92_G97D] | 0.773 | 0.528 | 0.98 | 0.975 | 0.663 | 1.18 | 0.977 | 0.83 | 0.629 | 1.12 | 0.7 | 0.457 | 0.605 | 1.1 | 1.08 | 0.515
REESTYLPLTS [ICAM3_Y527] | 0.811 | 0.787 | 0.961 | 1.35 | 1.75 | 1.62 | 1.19 | 0.894 | 0.803 | 1.51 | 1 | 1.41 | 0.674 | 0.88 | 3.17 | 2.39
DEIPLYLKGGV [COX7A2_Y44] | 0.716 | 0.454 | 0.83 | 0.492 | 0.962 | 0.79 | 0.5 | 0.508 | 0.391 | 0.656 | 0.485 | 0.854 | 0.593 | 0.566 | 0.522 | 0.422
LLRLAYLADIF [ZBED5_Y476] | 1.61 | 1.34 | 1.9 | 0.457 | 1.02 | 0.872 | 0.64 | 0.677 | 0.432 | 0.636 | 0.745 | 0.99 | 0.765 | 0.69 | 0.54 | 0.419
INITIYGKTFH [EFHC1_Y177_R182H] | 0.781 | 0.47 | 1.15 | 0.519 | 1.44 | 1.11 | 0.429 | 0.513 | 0.473 | 0.817 | 0.579 | 1.08 | 0.958 | 0.546 | 0.544 | 0.468
PGLSSYGVPGS [FLNB_Y1530_A1534G] | 0.611 | 0.534 | 0.934 | 0.598 | 0.786 | 0.774 | 0.623 | 0.578 | 0.622 | 0.643 | 0.508 | 0.355 | 0.715 | 0.494 | 0.543 | 0.454
KTDVRYRSLGG [DYSF_Y1858_H1857R] | 0.634 | 0.383 | 0.898 | 0.35 | 0.472 | 0.446 | 0.372 | 0.312 | 0.346 | 0.472 | 0.414 | 0.553 | 0.473 | 0.333 | 0.314 | 0.368
KDHPDYKFQPR [SOX10_Y171_YF] | 0.71 | 0.498 | 0.946 | 0.487 | 0.745 | 0.694 | 0.519 | 0.501 | 0.468 | 0.543 | 0.44 | 0.566 | 0.573 | 0.466 | 0.48 | 0.453
AVNNFYAAKKT [CCDC178_Y422_D420N] | 0.745 | 0.518 | 0.965 | 0.372 | 0.58 | 0.708 | 0.52 | 0.352 | 0.475 | 0.402 | 0.369 | 0.566 | 0.542 | 0.373 | 0.428 | 0.463
GGGMFYPLDLF | 0.749 | 0.532 | 1.07 | 0.453 | 1.1 | 0.942 | 0.405 | 0.454 | 0.372 | 0.693 | 0.405 | 0.891 | 0.627 | 0.503 | 0.499 | 0.388
ADCRFYTFPQM [GAMT_Y223_A224T_YF] | 0.717 | 0.513 | 1.25 | 0.811 | 1.48 | 1.88 | 0.584 | 0.813 | 5.08 | 0.895 | 1.99 | 1.2 | 0.784 | 1.07 | 0.534 | 1.24
VNKGGYFSVNL [C3orf33_Y164_S160N] | 0.725 | 1.4 | 0.648 | 0.456 | 1.05 | 0.832 | 0.599 | 0.411 | 0.412 | 0.603 | 0.395 | 1.23 | 0.688 | 0.553 | 0.411 | 0.398
YDEYRYRSVIK [CFTR_Y517] | 0.606 | 1.25 | 0.788 | 1.76 | 0.973 | 1.04 | 0.435 | 0.589 | 0.706 | 0.67 | 0.529 | 1.16 | 1.05 | 0.584 | 1.14 | 2.15
VKMLLYTEVTR [GDI1_Y93] | 0.706 | 0.771 | 0.869 | 0.759 | 1.43 | 1.32 | 0.529 | 1.25 | 2.58 | 0.883 | 1.08 | 1.23 | 0.83 | 3 | 1.24 | 0.834
PGVNFYFQVSA | 0.524 | 0.446 | 0.682 | 0.414 | 1.93 | 1.41 | 0.557 | 1.24 | 0.445 | 1 | 0.724 | 1.61 | 1.29 | 1.27 | 0.526 | 0.523
APGNAYGDAGF [SYP_Y250_D248N_YF] | 0.639 | 0.469 | 0.883 | 0.339 | 0.504 | 0.527 | 0.373 | 0.313 | 0.348 | 0.412 | 0.369 | 0.52 | 0.443 | 0.351 | 0.433 | 0.322
SSFPDYLAAVD [GLB1_Y154_D151Y_YF] | 2.81 | 0.509 | 0.816 | 0.586 | 1.09 | 1.31 | 0.676 | 0.603 | 0.422 | 0.761 | 0.66 | 0.925 | 0.703 | 0.604 | 0.576 | 0.497
